The numbers were not newly measured in PMC5000552, which cites them from elsewhere.

The term Kd denotes the free concentration of one partner at which half of the binding sites on the other are occupied at equilibrium, for simple one-to-one binding.

This series concerns the target BCL6 (Homo sapiens) (UniProt P41182).

Sequence of BCOR (Q6W2J9 whole entry): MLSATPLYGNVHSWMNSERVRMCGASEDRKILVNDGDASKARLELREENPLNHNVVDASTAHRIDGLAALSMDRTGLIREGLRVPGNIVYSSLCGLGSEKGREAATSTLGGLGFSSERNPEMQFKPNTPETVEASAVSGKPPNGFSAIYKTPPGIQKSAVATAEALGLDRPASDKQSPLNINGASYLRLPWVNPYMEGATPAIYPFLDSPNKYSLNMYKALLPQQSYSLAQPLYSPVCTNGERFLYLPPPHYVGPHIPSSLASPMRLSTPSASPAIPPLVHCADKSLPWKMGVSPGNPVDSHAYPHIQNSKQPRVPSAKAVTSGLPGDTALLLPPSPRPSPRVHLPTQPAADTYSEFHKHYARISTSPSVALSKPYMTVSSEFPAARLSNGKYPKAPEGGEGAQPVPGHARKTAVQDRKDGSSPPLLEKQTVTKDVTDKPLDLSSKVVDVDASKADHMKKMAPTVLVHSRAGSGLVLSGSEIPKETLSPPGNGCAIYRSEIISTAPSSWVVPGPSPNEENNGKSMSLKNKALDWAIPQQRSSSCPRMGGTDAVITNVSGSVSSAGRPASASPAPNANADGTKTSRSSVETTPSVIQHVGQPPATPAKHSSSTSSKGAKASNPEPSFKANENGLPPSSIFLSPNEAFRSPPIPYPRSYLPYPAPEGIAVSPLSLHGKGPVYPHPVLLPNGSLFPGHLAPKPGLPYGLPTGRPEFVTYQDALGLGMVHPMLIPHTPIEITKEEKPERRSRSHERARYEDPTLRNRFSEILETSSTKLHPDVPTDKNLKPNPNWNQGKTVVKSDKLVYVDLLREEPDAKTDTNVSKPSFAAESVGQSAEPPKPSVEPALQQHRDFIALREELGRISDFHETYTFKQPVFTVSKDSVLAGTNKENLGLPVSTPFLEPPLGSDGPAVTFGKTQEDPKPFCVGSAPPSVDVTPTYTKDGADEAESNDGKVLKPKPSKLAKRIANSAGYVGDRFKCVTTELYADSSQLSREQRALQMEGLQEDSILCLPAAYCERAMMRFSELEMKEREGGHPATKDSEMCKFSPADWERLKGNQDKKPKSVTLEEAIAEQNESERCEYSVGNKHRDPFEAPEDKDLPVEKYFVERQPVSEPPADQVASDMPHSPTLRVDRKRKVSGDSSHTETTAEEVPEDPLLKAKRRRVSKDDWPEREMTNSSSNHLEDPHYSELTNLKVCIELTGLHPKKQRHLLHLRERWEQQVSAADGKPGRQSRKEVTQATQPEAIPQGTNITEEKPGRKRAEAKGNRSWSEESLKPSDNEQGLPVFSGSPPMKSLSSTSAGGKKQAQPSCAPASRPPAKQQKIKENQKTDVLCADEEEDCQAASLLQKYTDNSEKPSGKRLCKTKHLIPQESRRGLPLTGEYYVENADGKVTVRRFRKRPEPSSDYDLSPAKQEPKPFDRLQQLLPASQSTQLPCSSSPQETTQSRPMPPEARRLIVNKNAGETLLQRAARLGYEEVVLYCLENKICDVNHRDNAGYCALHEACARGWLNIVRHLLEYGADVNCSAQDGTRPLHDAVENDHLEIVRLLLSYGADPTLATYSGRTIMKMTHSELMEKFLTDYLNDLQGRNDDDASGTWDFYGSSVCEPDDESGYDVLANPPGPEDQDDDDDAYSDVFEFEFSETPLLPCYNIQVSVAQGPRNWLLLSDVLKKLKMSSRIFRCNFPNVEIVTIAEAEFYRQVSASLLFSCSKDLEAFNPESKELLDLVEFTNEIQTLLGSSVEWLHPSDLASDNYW

On to BCOR (from UniProt Q6W2J9), for which the Kd is 20 µM.
